Test results from US20200231688A1 (published 2020).
Substitutions are numbered along the chain they refer to.

T1: soluble recombinant human IL-6 receptor (SR344) (human, UniProt P08887 20-344)
T1 construct: range 1-344; also called soluble IL-6 receptor; soluble human IL-6 receptor
T1 sequence (looked up): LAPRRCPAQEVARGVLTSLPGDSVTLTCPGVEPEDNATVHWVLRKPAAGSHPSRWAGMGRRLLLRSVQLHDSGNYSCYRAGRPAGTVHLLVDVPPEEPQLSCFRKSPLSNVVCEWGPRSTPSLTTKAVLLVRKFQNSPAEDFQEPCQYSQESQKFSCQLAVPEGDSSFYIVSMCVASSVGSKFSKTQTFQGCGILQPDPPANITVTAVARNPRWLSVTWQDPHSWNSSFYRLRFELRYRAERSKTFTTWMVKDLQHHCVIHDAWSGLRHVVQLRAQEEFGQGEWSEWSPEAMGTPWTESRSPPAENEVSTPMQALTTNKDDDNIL

B1: TOCILIZUMAB (antibody, human IgG1, kappa)
heavy: not shown
light: not shown
notes: Humanized anti-IL-6 receptor IgG1 antibody; H chain WT-IgG1, L chain WT-kappa; also called TOCILIZUMAB-IgG1; WT-IgG1/WT-kappa
B2: H3pI/L73 (antibody, human IgG1, kappa, V domains shown)
VH: QVQLQESGPGLVKPSETLSLTCAVSGHSISHDHAHSWVRQPPGEGLEWIGYISYSGITNYNPSLKGRVTISRDTSKNQFSLKLSSVTAADTAAYYCARSLARTTAMDYWGEGTLVTVSS
VL: DIQMTQSPSSLSASVGDSVTITCQASQHISSHLNWYQQKPGKAPELLIYYGSHLHSGVPSRFSGSGSGTDFTFTISSLEAEDAATYYCGQGNRLPYTFGQGTKVEIER
notes: also called H3pI-IgG1/L73-kappa
B3: Fv3-M73 (antibody, V domains shown)
VH: QVQLQESGPGLVKPSETLSLTCAVSGHSISHDHAWSWVRQPPGEGLEWIGFISYSGITNYNPTLQGRVTISRDNSKNTLYLQMNSLRAEDTAVYYCARSLARTTAMDYWGEGTLVTVSS
VL: B2 VL with Q27R, H28D, H55L
notes: Fully humanized IL-6 receptor antibody; also called VH4-M73/VL1-kappa
B4: Fv4-M73 (antibody, V domains shown)
VH: B3 VH with T63S
VL: B2 VL with Q27T, H28D, H55L
notes: Fully humanized IL-6 receptor antibody; also called VH3-M73/VL3-kappa

What was measured:
[1] = target: T1, soluble recombinant human IL-6 receptor …; test: SPR Biacore T100, 37 C; biotinylated SR344 immobilised via streptavidin as membrane-type IL-6 receptor; ratio of dissociation rates
Protocol: (§1) The binding to membrane-type IL-6 receptor was assessed by evaluating the binding to soluble human IL-6 receptor immobilized onto the sensor chip. SR344 was biotinylated by a method known to those skilled in the art. Based on the affinity between biotin and streptavidin, biotinylated soluble human IL-6 receptor was immobilized onto the sensor chip via streptavidin. All measurements were conducted at 37° C. The mobile phase buffer was 10 mM MES (pH 5.8), 150 mM NaCl, and 0.05% Tween 20. […] The dissociation rate constant (kd (1/s)) at pH 5.8 was calculated using Biacore T100 Evaluation Software (GE Healthcare) by fitting only the dissociation phase at pH 5.8. The sample concentration was 0.25 pg/ml. Binding was carried out in 10 mM MES (pH 7.4), 150 mM NaCl, and 0.05% Tween 20, and dissociation was carried out in 10 mM MES (pH 5.8), 150 mM NaCl, and 0.05% Tween 20. Likewise, the dissociation rate constant (kd (1/s)) at pH 7.4 was calculated using Biacore T100 Evaluation Software (GE Healthcare) by fitting only the dissociation phase at pH 7.4. The sample concentration was 0.5 pg/ml. Binding was carried out in 10 mM MES (pH 7.4), 150 mM NaCl, and 0.05% Tween 20, and dissociation was carried out in 10 mM MES (pH 7.4), 150 mM NaCl, and 0.05% Tween 20.

[2] = target: T1, soluble recombinant human IL-6 receptor …; test: SPR Biacore T100; immobilised biotinylated SR344 as membrane-type IL-6 receptor; against TOCILIZUMAB
Protocol: as §1

Binder	kd(pH 5.8)/kd(pH 7.4) pH … [1]	fold increase of pH dependence of the dissociation rate against TOCILIZUMAB [2]	fold improvement of pH dependency of the dissociation rate against TOCILIZUMAB [2]
B1	1	–	–
B2	–	~2.6 times	–
B3	10.9	–	~11 times
B4	10.1	–	~10 times
